Test results as given in US20170267727A1, “Conjugates of pH Low Insertion Peptide and Monomethyl Auristatins in the Treatment of Solid Tumors” (Lehigh University, priority 2016, published 2017).
Entries after “also recorded” stand apart in the source; their conditions may differ. Positions of bridges follow the written chain, without caps; N, C: chain ends. Non-standard residues stand in square brackets, D forms with d. Chains are numbered I, II in the order given. *: point of attachment. Dolaproine = CO[C@@H]([C@@H]1CCCN1)[C@@H](C)C(=O)O; Dil = CC[C@H](C)[C@H](NC)[C@@H](CC(=O)O)OC; X1 = C[C@@H](N*)[C@@H](O)c1ccccc1; NMeV = CN[C@H](C(=O)O)C(C)C; Mpa = O=C(O)CCS

How the values were obtained:
[1] = Construct Stability HPLC in Cell Media; assay type: physicochemical; details: 10 μM, 2 h at pH 5.0 and 37° C.
Protocol: (§1) FIG. 8A, FIG. 8B, and FIG. 8C show Purity check and Chemical stability of pHLIP-MMAE conjugates. (FIG. 8A) and (FIG. 8B): HPLC traces of pHLIP(WT)-MMAE and pHLIP(D25E)-MMAE, respectively: Purified conjugates (upper panels), 10 μM of conjugate in cell media (middle panels) and after incubation in cell media for 2 h at pH 5.0 and 37° C. (lower panels). The small peak observed around 27 min in (FIG. 8B) upper panel corresponds to some residual free pHLIP (<15%), which is known to not be cytotoxic (FIG. 7). (FIG. 8C) HPLC traces of Alexa750-pHLIP(WT)-MMAE: Purified conjugate (upper panel), 10 μM Alexa 750-pHLIP(WT)-MMAE before (upper panel) and after 48 h incubation in mouse serum at 37° C. (lower panel). Purity checks and chemical stability runs were performed on different column and with different flow rate, explaining the difference in retention times and peak broadness (see Experimental Section). […]
(§2) Peptide solutions were incubated at either pH 7.4 or pH 5.0 (37° C. and 5% CO2) and 100 μL aliquots were monitored via RP-HPLC at various time points (Agilent Eclipse XDB-C18 […] 9.4×250 mm; flow rate 2 mL/min; phase A: water 0.01% TFA; phase B: acetonitrile 0.01% TFA; gradient 45 min from 95/5 A/B to 0/100 A/B). […] The stability of Alexa750-pHLIP(WT)-MMAE was determined in mouse serum by solubilizing the construct to incubating it at 37° C. and monitoring via RP-HPLC at specific time points.

[2] = Construct Stability HPLC in Mouse Serum; assay type: in vitro ADME; details: 37° C., 48 h
Protocol: as §1, §2

HeLa cells = assay: Anti-proliferation Assay (2 hours treatment at pH 7.4 or 5.0, 72 hours growth, MTT)
Protocol: FIG. 3A, FIG. 3C and FIG. 3E show HeLa cells treated with pHLIP(WT)-MMAE, pHLIP(D25E)-MMAE, and MMAE(linker), respectively. FIG. 3B, FIG. 3D and FIG. 3F show MDA-MB-231 cells treated with pHLIP(WT)-MMAE, pHLIP(D25E)-MMAE, and MMAE(linker), respectively. Black columns represent cells treated at pH 7.4 and cells treated at low pH are shown in grey. For each condition, 3,000 cells/well (96-well plate) were seeded, allowed to adhere overnight, treated for 2 hours, washed once with media and grown for 72 hour in complete medium at physiologic pH. Cell viability was assessed with the MTT assay. All measurements were normalized to the media control (0 μM, pH 7.4), as 100% cell viability. Results are shown as mean±SD (n=6-9).
HeLa cells treated with pHLIP(WT)-MMAF (FIG. 9A), pHLIP(D25E)-MMAF (FIG. 9B), pHLIP(P20G)-MMAF (FIG. 9C), and pHLIP(R11Q)-MMAF (FIG. 9D). Circles represent cells treated at pH 7.4 and squares represent cells treated at pH 5.0. Results are shown as the mean±SEM (n=6-9).
Anti-proliferation Assay. HeLa and MDA-MB-231 cells were seeded in 96-well plates at a density of 3,000 cells/well and incubated overnight. Before treatment, construct aliquots were solubilized in an appropriate volume of DMEM without FBS (pH 7.4)—so that upon pH adjustment the desired treatment concentration is obtained—and gently sonicated for 30-60 seconds using a bath sonicator (Branson Ultrasonics). After removal of cell media, this treatment solution was added to each well and incubated at 37° C. for 5-10 minutes. The pH was then adjusted to the desired value using a pre-established volume of DMEM, pH 2.0 buffered with citric acid (final volume=50 μL) and the plate was incubated at 37° C. for 2 hours. After treatment, the media was removed, cells were washed once with 100 μL of complete DMEM, and 100 μL of complete medium was added to each well before returning the plate to the incubator. Treatment solutions were collected and their pH values measured using a micro-combination pH probe (Microelectrodes, Inc.). […] Cell viability was determined after 72 hours using the colorimetric MTT assay. Briefly, 10 μL of a 5 mg/mL MTT stock solution was added to the treated cells and incubated for 2 hours at 37° C. The resulting formazan crystals were solubilized in 200 μL DMSO and the absorbance measured at 580 nm using an Infinite 200 PRO microplate reader (Tecan). Cell viability was calculated against control cells treated with media at physiologic pH.
Inhibition of Cell Proliferation. The ability of pHLIP to move MMAE across the cell membrane and to inhibit cancer cell proliferation in concentration and pH-dependent manners was evaluated. Cell treatments for both pHLIP(WT)-MMAE and pHLIP(D25E)-MMAE constructs were carried out with conjugate concentrations ranging from 1.25 to 10 μM at either pH 7.4 or 5.0. After a 2-hour incubation at 37° C., the treatment media was replaced by fresh media, and cells were grown for an additional 72 hours at normal pH before assessing cell viability using the MTT assay. […] This treatment protocol is quite stringent when compared to the typical multi-days exposure treatments used with free drugs (FIG. 6A and FIG. 6B).

Substance | degradation in cell media by HPLC or mass spectroscopy [1] | stability in serum [2] | effect on cell proliferation (HeLa cells; pH 7.4, same conditions (1.25 to 10 μM)) | cytotoxicity (HeLa cells; physiological pH, 5 μM)
I: H-AAEQNPIYWARYADWLFTTPLLLLDLALLVDADEGTCG-OH / II: [Mpa][NMeV]V[Dil][Dolaproine]-X1 (disulfide I:37-II:1) [pHLIP(WT)-MMAE] | No significant degradation; also recorded: no degradation products are observed | stable in serum | no or a moderate effect on cell proliferation | only marginal cytotoxicity
I: H-AAEQNPIYWARYADWLFTTPLLLLELALLVDADEGTCG-NH2 / II: [Mpa][NMeV]V[Dil][Dolaproine]-X1 (disulfide I:37-II:1) [pHLIP(D25E)-MMAE] | No significant degradation; also recorded: no degradation products are observed |  |  | 
